Positions count from the first letter of the chain named. Numbers in names are those of the source.

Data on 3 molecules can be found in US20240409614A1 (DANMARKS TEKNISKE UNIVERSITET, published 2024).

To fix the notation:
B1: A1AT-M351V/L353A/M358V (other)
chain: EDPQGDAAQKTDTSHHDQDHPTFNKITPNLAEFAFSLYRQLAHQSNSTNIFFSPVSIATAFAMLSLGTKADTHDEILEGLNFNLTEIPEAQIHEGFQELLRTLNQPDSQLQLTTGNGLFLSEGLKLVDKFLEDVKKLYHSEAFTVNFGDTEEAKKQINDYVEKGTQGKIVDLVKELDRDTVFALVNYIFFKGKWERPFEVKDTEEEDFHVDQVTTVKVPMMKRLGMFNIQHCKKLSSWVLLMKYLGNATAIFFLPDEGKLQHLENELTHDIITKFLENEDRRSASLHLPKLSITGTYDLKSVLGQLGITKVFSNGADLSGVTEEAPLKLSKAVHKAVLTIDEKGTEAAGAVFAEAIPVSIPPEVKFNKPFVFLMIEQNTKSPLFMGKVVNPTQK
B2: A1AT-M351V/L353S/M358V (other)
chain: B1 chain with A353S
B3: A1AT-M351V/L353T/M358V (other)
chain: B1 chain with A353T

The target in this experiment is elastase (EnzChek Elastase Assay kit, Invitrogen). Description: cell-based or functional assay.
Regarding B1, the “IC50 (anti-elastase activity), first determination” value turned out to be 74.6 nM and the “IC50 (anti-elastase activity), second determination” value stood at 78.2 nM.
On to B2, for which the “IC50 (anti-elastase activity), first determination” value was determined as 86.9 nM and the “IC50 (anti-elastase activity), second determination” value worked out at 108 nM.
In the same order, the values of B3 are 98.9 nM and 115 nM.
